The source of these data is PMC4407889, “Improved Catenated Structures of Bovine Peroxiredoxin III F190L Reveal Details of Ring-Ring Interactions and a Novel Conformational State” (PLoS ONE, 2015).

The data set concerns the molecule itself. The data set is described as follows: crystal structure; reduced form, crystallized in the presence of DTT; sitting-drop vapor diffusion, 16°C, 34% (v/v) 2-methyl-1,3-propanediol, 0.1 M phosphate-citrate pH 4.2; protein 15 mg/ml; space group P2(1)2(1)2; 2.2 Å.

B1: bovine peroxiredoxin III F190L (enzyme, UniProt P35705 63-257, looked up)
chain: APAVTQHAPYFKGTAVVSGEFKEISLDDFKGKYLVLFFYPLDFTFVCPTEIIAFSDKASEFHDVNCEVVAVSVDSHFSHLAWINTPRKNGGLGHMNIALLSDLTKQISRDYGVLLEGPGLALRGLFIIDPNGVIKHLSVNDLPVGRSVEETLRLVKAFQFVEAHGEVCPANWTPESPTIKPHPTASREYLEKVNQ
notes: Mitochondrial 2-cys peroxiredoxin III (PrxIII), bovine, lacking its N-terminal 62 amino acid mitochondrial targeting signal; residue 1 is the N-terminal alanine of the mature protein; Construct in pET14b; Twelve chains form one (α2)6 dodecameric toroid, and two toroids interlock as a two-ring catenane in the crystal; In the oxidized form Cys47 of one monomer is disulfide-bonded to Cys168 of its …
As usually defined, the stoichiometry N is the number of molecules, sites or subunits per partner or assembly. As for B1, the “stoichiometry N” value was found to be 12.
